Test results from publication PMC8408231, “The basic helix-loop-helix transcription factor TabHLH1 increases chlorogenic acid and luteolin biosynthesis in Taraxacum antungense Kitag”.

T1: TabHLH1 (Taraxacum antungense Kitag, UniProt A0A482LNV1 1-521)
T1 sequence: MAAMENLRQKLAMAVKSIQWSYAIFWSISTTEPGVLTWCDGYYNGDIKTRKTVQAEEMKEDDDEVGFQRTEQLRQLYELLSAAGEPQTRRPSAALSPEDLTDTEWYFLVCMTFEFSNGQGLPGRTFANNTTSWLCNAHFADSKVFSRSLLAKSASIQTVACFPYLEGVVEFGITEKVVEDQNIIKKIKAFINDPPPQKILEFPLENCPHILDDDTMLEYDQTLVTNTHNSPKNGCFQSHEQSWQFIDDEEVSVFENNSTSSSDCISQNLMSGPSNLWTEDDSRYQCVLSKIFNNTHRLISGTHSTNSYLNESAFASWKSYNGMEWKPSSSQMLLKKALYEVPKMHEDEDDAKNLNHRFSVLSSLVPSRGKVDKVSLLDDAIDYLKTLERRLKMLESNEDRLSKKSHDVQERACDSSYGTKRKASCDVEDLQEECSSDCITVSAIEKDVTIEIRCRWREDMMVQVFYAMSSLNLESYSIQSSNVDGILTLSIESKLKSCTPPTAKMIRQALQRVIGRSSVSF


Biological target: T1, TabHLH1
Experiment: EMSA; unlabeled identical cold probe used as control; EMSA binding buffer (Beyotime, 10x stock), 25 °C, 30 min; salt and pH not stated
Details: protein: recombinant; tags: GST (pGEX4T-1); chain copies: 2; label: 3' biotin on both strands; blunt

Row | Binder | binding result
1 | TaHQT2 promoter E-box probe (dsDNA) DNA 1: CGAACGGAGGAACATGTGTGCTCTGAAAAT DNA 2: ATTTTCAGAGCACACATGTTCCTCCGTTCG | binds
2 | Ta4CL promoter E-box probe (dsDNA) DNA 1: TGGCCAAAATCCCATGTGATTTCGGCCCAC DNA 2: GTGGGCCGAAATCACATGGGATTTTGGCCA | binds
